Results: patent US20070111265A1, “Ligands for mineralocorticoid receptor (MR) and methods for screening for or designing MR ligands” (Van Andel Research Institute, priority 2005, published 2007)

Tests used:
[1] = target: VP16-MR LBD (K782E) (human) (UniProt P08235); assay: cell-based or functional assay
[2] = target: VP16-MR LBD (residues 727-984) (human) (UniProt P08235); assay: cell-based or functional assay
VP16-MR LBD (residues 727-984) (human), sequence (P08235 727-984 limits assumed): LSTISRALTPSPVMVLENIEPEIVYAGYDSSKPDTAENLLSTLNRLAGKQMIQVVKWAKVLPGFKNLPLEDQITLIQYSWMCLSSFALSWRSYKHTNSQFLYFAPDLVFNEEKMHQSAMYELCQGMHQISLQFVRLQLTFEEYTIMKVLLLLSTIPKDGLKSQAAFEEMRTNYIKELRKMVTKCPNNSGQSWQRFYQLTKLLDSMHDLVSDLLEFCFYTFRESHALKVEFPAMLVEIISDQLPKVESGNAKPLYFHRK

VP16-MR LBD (K782E) (human), sequence (P08235 727-984 K782E): as the sequence (P08235 727-984 limits assumed) above, with K56E counted along it

Substance: Gal4-SRC1-4 (GAL4-DBD fused with SRC1 residues 1240-1441) (from UniProt P04386 1-147; Q15788 1240-1441)
- activation of the reporter driven by the GAL4 DNA-binding sites (mammalian two hybrid, luciferase) [1]: 1.7 fold
- activation of the reporter driven by the GAL4 DNA-binding sites (mammalian two hybrid, luciferase) [2]: 7 fold
